According to publication PMC3648639:

Target: untagged RNF8 FHA domain (UniProt O76064)
Experiment: ITC

Sequence of UniProt O76064 (O76064 38-92): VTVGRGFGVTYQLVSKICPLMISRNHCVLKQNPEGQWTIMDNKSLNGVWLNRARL

For ICP0 pT67 peptide, the Kd was 833 nM.
